Tests used:
[1] = target: Recombinant GST-CypD (wild type) (UniProt P30405)
[2] = target: Recombinant CypD Ser123→Ala mutant (UniProt P30405)
Chain of Recombinant CypD Ser123→Ala mutant (P30405 whole entry, looked up, change not shown): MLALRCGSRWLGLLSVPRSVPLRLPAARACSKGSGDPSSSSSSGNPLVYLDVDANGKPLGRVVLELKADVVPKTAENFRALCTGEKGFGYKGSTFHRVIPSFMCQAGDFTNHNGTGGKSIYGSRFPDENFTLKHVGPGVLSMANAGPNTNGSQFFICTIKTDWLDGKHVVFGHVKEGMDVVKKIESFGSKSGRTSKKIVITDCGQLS

Chain of Recombinant GST-CypD (wild type) (P30405 whole entry): as the sequence (P30405 whole entry, looked up, change not shown) above

active Akt1
kinase assay with recombinant proteins, autoradiography [1]: readily phosphorylated
kinase assay with recombinant proteins, autoradiography [2]: readily phosphorylated

— patent US20240342199
